Laboratory results published in the domain aggregation screens of Martell et al. (2025).

experiment: soluble fraction after stress (log2 fold change); higher = more stays soluble; pooled small domains, quantitative proteomics; conditions: stress: 75 degC
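Also: 20 min heating vs room temperature control held 20 min.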

Sequence	soluble fraction (log2)
HMKAMIIVMKPGADMATISKVLKTIETNGFKPHLSKGEETTVIGVIGDERKLNPDIFSTLEGVERIVPVA	0.251
HMKASTRELLDFVLSQRGVSTASVAKALGISVQNASTRLKKLSNEGLIIRSEASSLTGGIEFLYS	-0.822
HMKDASEFLGAKGKTITPLRPTGAAVINGEKVDVLAEGEFIPKNAEIVVIKVEGSKIIVRNANN	-0.061
HMKDDLTWSEGLMPNVVGMGLRDAMFMLENSGLRVNYSGRGKVTRQSPQPGVRIKRGATVAIELRL	-1.89
HMKDEHYLYIKARVDNGDYPHLSELKSAEEIELVMPKLLQDGIVEFNKETGEYTIGEDVKAEIERL	0.12
HMKDESYALGTRLLSHALGKTKLEDLAQEKIDEVVQQSGNKTLEQLLTNIGLGNALSIGIARQLT	0.345
HMKDGAKYFQLFGLLKNEINRGIYQSGQKIPGENELAEKYGMSRQTVRQALSLLEQESLIERRQGSGTYVR	-0.121
HMKDGMRVYITYHDSEEEPEKPIGDGTTKGWHTNSTASVVWISQKVAESADLGIWGDPIRIKGEA	0.0608
HMKDIIVDPQGQYNHPGVPTRIPSSDITMKGVGYPVLGIADNGQKQMMQPGQDYKFPGAKYVDEYPQM	0.185
HMKDIIVLGAIQAGIKKFDKIQKMTQIEPEELNSILEQLENRGFIQVAEKSGLLGKKIEILVTEKGSNEVD	0.223
HMKDITAVISKKKGRDYYYIIVSYHLSNGKRVQKWIKTEFSVNGNNKRKLEQKRIEILQEWQNKLV	-1.04
HMKDITMPNVYGLTLEMAEQTLKQSELSIFKAMKINSDTVEEGKVIYTDPKANSIVSGDQEITIYVSDGP	0.411
HMKDKSEKTKKLIFEAAFKIIREEGFSELSANKIAQVASVSKGVIFHHFSQMDDLYLFMLDTL	0.23
HMKDLTAIKGVGEFFAKKLSQAGYQSITNLTDVNAKRLQADTGIPLPIAARIIKEAQSLIAET	0.157
HMKDMWNRIRRARLSAGLSQAALAKETGVRRSAVTQWEKEGGTSPSVANLARIAVVTQVHFEWLATGRGPG	-2.76
HMKDNIRSILEDIPNIGPGRRRALLKHFGSIEAIRRASLEDLIKVDGMNRNAALSIMEYFGM	-0.286
HMKDPSLEHIDALAGKPFQAFPGQDHRAHITAHLNFMSTNMVRNNPSIMAAIQKNILEHISLMAQEQIQL	-1.42
HMKEETYHYTVRYVTDGGDILASYEGKATKDSVFFPEVKTFDGYTAVRGEEPMFHLVSDHAVFQIVYQKNG	-1.17
HMKEFEINSQWKPSLEVYDILSVKGGISRNFIEDSIPEFVLYWRGRGDKSNTWDSKFVQHVKRQWNFYSGL	-2.43
HMKEGGREEMSEIVERYGDERALMANITSVQNLMNNMKWTLDQALDALGIKGKERTLITQQLQ	-0.0628
HMKEIATKSELTYFIQRLLDLLEETNFFNPEERKKAMINHIEAIFRRNNLTLQELNMLHGIITSITR	-2.45
HMKEIGGGPASKFIYYLIKTKHPIEQGDLIGITHLPRRTVQSAIEDLKNQGFIIERNSLDDSRRKVYYPVK	-0.943
HMKEIKRLVELSPGRYFIEGATNIRVFGINGSLLLDTKGETVDLSDLAKGVYLLKTDGVTYKVL	-0.506
HMKEIYIDRGKEALEKELRKRKIPFQEFLSKENTNLLFDTLKIPSHDLEELYLEIGNGKHAASTVVNTVY	0.391

Sequence	soluble fraction (log2)
HMKEKQLMTLDDDLYAFLLKHPGIIQKDIYNHFPYDIKGVIADTLYAWDKTGKIKRTKSGNSYIIYT	-0.228
HMKELAADFSRRIINARTSKGWSQADLGQRMAETINVIKSAESGKPPTDAVVKKFETVLGVILM	-1.06
HMKELLDRIFLHETMRRVSQDATITFSKKVYEVPQKFIGRQVTVQYDPEDLSRVYVKDLNFPEPVMVYPVQ	-1.59
HMKELTPEQLQHNWNNLRQFIDVNFSGDRLGGLNKMYDYFEERMMFAPASGKQHYHNAFAGGYVEHVMHV	0.209
HMKEPGFAPPVRALAAAPITVLAQVAGTNPGEIRARLRAAGYPVASDQQSVQSLVGGDLKAQIGVLNRILA	-0.286
HMKEQIKVPDLSNKTPEEAKKELNTLGLGARKGGEESSDTVEEGLITRQEPAAGEQVDKNTQILFYVSTGK	0.901
HMKEQLLLGFKVRSLRGIDLGFVKFIEGSAFQSFLKTDLTIIPNVPNYVKKIDNVKKIILVDWESD	-2.8
HMKEQYTELDWDKVQVNDKVMIKDLNQQVTILSLPDKNNALYIQMGMIKTKVKKEKLAVYNPQLA	-2
HMKERVSWDERLERFAKHITENESLPYPSSKEYAWFEENKALYDAGELEPVRAQSFAFLLKIMRRMNL	-1.7
HMKETIIPELLQNELDKNSELNDKFNTFSPYKQREFIEYIITAKQEKTQISRLQKVILMILEGRGLNN	-1.89
HMKEVELENMIKAKGFKDAAVLVDERSVTVIVESERLAAGDSASIKELVSRGTGVDPQNVVII	-0.31
HMKEYPEVITTSRLNVRTGPGTGYQRLGTLDQNLRVLVLTRQQGWAQIRGMLNGETVIGWVNDYYLQAID	-2.54
HMKFINISIDKSGNLFINKKSIKFQDLKYNVVNLVDESKNLVVLNADENISHGYVISVLDVLRSIDGLKLA	-2.13
HMKFNEKQNEVRIAIMNFIIDNKRPFHMKQDGYDALEGITLSGRHEFQDILDVLHSRDGFSADEEGNINF	-1.09
HMKFPIITAKQDSDGKFYWAQTTDKGKTYTFILDGDGKKFPIGGTMPDVKINENGYWSVNGSSTGVLANDL	0.368
HMKFSVEEQFKKSFPKNTYETFSETSLKGVYEVYNGKQVYYYLPVNDVLLLGSIVTKDGKNLTQESNSKK	-0.279
HMKGIVFTEFLDLVEERFGLEMVDAIISQSKLESKGVYTSIGTYSFSELLQLLQNLKIQTGISIDNLLLI	-0.961
HMKGKIYFFEEGVDRVGGVERVISTLANEFSKKYKVNVISFYKTRKETFFKYNSDIDITYLSK	0.152
HMKGLDRATNKALLLKHIIDNGSTGTRFSELRQVLPSLTRGSISSLLIELRSEGKIHSIGVTRNARWYPTE	-1.79
HMKGLKERLLYFIEYKGLPVQMFEKIVGLSNAAVSKMGDNTRRSTIDKISKSFPELDVNWLLTGQGEMLSY	-0.942
HMKGPAFAKIDLTQLPAGLTSFLNTNAAGFKLDYAVAITKDSVIIEYHVGVTIGTAKKEFHLDPNFQLLP	-0.499
HMKGPLKDLGPDPVTGKSILVKDGKFGTYVTDGETNATLRRGDIVELLTLERGMELLAEKRARATQ	0.0771
HMKGTVKFFNESKGFGFITEEGTNKEHFVHVSGLVDEIRENDEVEFDLQDGRKGLNAVNVRV	0.363
HMKGVENLSDIDIQKALNNARANLSKNKAKLEQAGDDEKKKASALAMIQKWETTKKAIEEEIEARKKKSLN	-0.491

Sequence	soluble fraction (log2)
HMKHAIKEKIRNEYVHGYLNEEGYRVMPTLDELIRKYEVPASSTYRASSKEGWKKQKEAFLEHLRGEIDA	-0.492
HMKHFFIIAGGKIEDAFAIEVLKGFAEKTVIAADSGMEFLRRNEIVPQVIIGDFDSVSKETLEWFQKK	-0.751
HMKHKGILTTWNDDRGFGFITPKEGKEPVFVHISAFARGQGRPVLNASLTYRLVRDDQQRPRAEAVRL	-1.33
HMKHKHHIIPKHKGGTDHPDNLIELTVEQHAKAHWVEFMLDGREEDYWAWKGLEGVASKKDIIYALSKR	-0.0688
HMKHSEAIELGKRMLSQALQDVSLVLKKIPEERLQAVAAELNLKTPDELFEKIGLGERLAALVARRLLP	-0.851
HMKHTQTDEGELLSTLRTLFPNSSSSSLRKMLTQGRILVNQEVVHRAKHALQAGDEIEVLARQ	-0.13
HMKHVDLDNNERYIYGIIGSTKIHVDEVVEKSGMETKHVMAILTNLELKEAIKGIPGGFYLR	-2.02
HMKHVENLSDEKTIQAIQENPYMQYLLGLSKFTEKPVFVPELFVLIRKRLDQDFFNMLTLILAEADG	≥ 1.04
HMKHYIDFIAEQLKTLTAIPSPSGYTKNATDYLMKLLQDMGYEPKLSRKGNVFVTLGGDGEPLVLAAHVD	0.112
HMKIDELKAYLFQSVRVKNPHTQEYDTLKIIELNYYQDKIKAKLKNSDDDYITEMIFESIKHLQNFLG	-2.81
HMKIEEIAYSTFISMLDKGEVSKVELKDNLIYIETKADDKTIYTTGRMEDPDLTNRLIEAGVDFTEIE	-0.196
HMKIELSDNEKIIYDLLSSQHVLLSEIKDKAGLSNKAWDKSTKSLRKLGLIAVEKKDDDIYISKL	-0.0288
HMKIGIYPGTFDPITHGHTDIIRRSLRVFDKVVVAVAPNPSKHPLFTLTERLEMIRIVMKELEHVEVT	0.159
HMKILVTDDNIRIDKYLTTQTEYSRSTIQKMIESNNILVNNKPTKSNYILRNNDEITIDENFNEE	-0.00567
HMKININEASRYELMTIGGLDAGRADMLMQYRQKREISSADELKGINGFASYDTAKLQKSFEISP	-0.0573
HMKIRKAVIPAAGLGTRVLPASKSIPKEMLPIVDKPVIQYIVEEAVKAGITEILIITGRGKGAIEDHFDRS	-0.391
HMKISIDNPSVLLDKLATLFPDTSKNKLRKMLTEGRIYVNDNIEHRAKRELINGDTVKILDKTTSKE	-0.121
HMKITAPLPGTITEIKVKVGDTVKNGDTVVVLEAMKMQNNIEAESNGTVTAIFVNKGDTVMEGDALMTI	-0.075
HMKITTKNYFKAIAEVGVENLPAALKKSHDLIEERTSKGADWSVYEHDAEVRRVFDLTFEKLFEFIDQ	-1.88
HMKKAITMGDIITVKELSEKIGIQVAEIIKKLMGLGILATINKELDYDTANVIASEFHIELERK	0.117
HMKKASLSTVEKKLMKQNYSNDTMENRLARVESYMFGTVFSSDDTQTRIDRISSAYNAQKSS	-0.0731
HMKKDLATYAYEHIKQMVIDRELMPGERIQQEVLARELGISRTPLVTALNRLASENLVELEANKGFSVRRF	-0.451
